B1: CCHC-type zinc finger nucleic acid binding protein (Homo sapiens), P62633 (parent)
chain: MSSNECFKCGRSGHWARECPTGGGRGRGMRSRGRGGFTSDRGFQFVSSSLPDICYRCGESGHLAKDCDLQEDACYNCGRGGHIAKDCKEPKREREQCCYNCGKPGHLARDCDHADEQKCYSCGEFGHIQKDCTKVKCYRCGETGHVAINCSKTSEVNCYRCGESGHLARECTIEATA

Variants of: B1
Conditions: with anm1_rat Prmt1, Q63009
anm1_rat Prmt1, Q63009, sequence (Q63009 whole entry, looked up): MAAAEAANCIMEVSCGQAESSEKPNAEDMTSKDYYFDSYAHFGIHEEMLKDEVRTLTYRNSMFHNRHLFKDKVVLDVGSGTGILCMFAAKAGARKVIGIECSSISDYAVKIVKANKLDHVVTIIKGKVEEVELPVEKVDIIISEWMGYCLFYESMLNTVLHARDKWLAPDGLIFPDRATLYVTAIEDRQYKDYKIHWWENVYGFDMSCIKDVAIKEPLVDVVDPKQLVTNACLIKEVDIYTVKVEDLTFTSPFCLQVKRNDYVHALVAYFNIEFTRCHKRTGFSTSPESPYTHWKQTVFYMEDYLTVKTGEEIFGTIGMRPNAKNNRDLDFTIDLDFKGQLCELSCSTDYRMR

Variant | effect of a mutation on the interaction
R25A;R27A | decreasing interaction
